Each block holds one binder with its values, some of them ahead of it.
What was measured:
[1] = biological target: T1, kringle-1 of human prothrombin (amino acids 44-155) (human, UniProt P00734 87-198); assay: ELISA, antigen immobilised, Hill fit
T1 construct: Numbers count on the mature protein

[2] = biological target: T2, human prothrombin wild-type (human, UniProt P00734 44-622); assay: ELISA, antigen immobilised, Hill fit
T2 construct: range 1-579; Residue numbers count on the mature protein, not on the precursor entry; In some runs 200 uM argatroban was added to force the open form; also called coagulation factor II; PT

[3] = biological target: T3, prothrombin variant S91A/Y93A (human, UniProt P00734 44-622, S91A; Y93A); assay: ELISA, antigen immobilised, Hill fit
T3 construct: range 1-579; Recombinant, expressed in Expi293 cells in the presence of vitamin K. Positions 91 and 93 count on the mature protein; also called ProTS91A/Y93A

[4] = biological target: T4, kringle-2 of human prothrombin (amino acids 156-271) (human, UniProt P00734 199-314); assay: ELISA, immobilised antigen, 5B10 titrated, OD at 450 nm [panel B]
T4 construct: range 156-271; Numbers count on the mature protein

[5] = biological target: T3, prothrombin variant S91A/Y93A; assay: SPR, POmAb immobilised
[6] = biological target: T1, kringle-1 of human prothrombin (amino …); assay: SPR, calculated from Kd
[7] = biological target: T2, human prothrombin wild-type; assay: SPR, calculated from Kd
[8] = biological target: T1, kringle-1 of human prothrombin (amino …); assay: SPR, second set, calculated from Kd
[9] = biological target: T2, human prothrombin wild-type; assay: SPR, second set, calculated from Kd
[10] = biological target: T3, prothrombin variant S91A/Y93A; assay: SPR, second set, calculated from Kd
[11] = biological target: T1, kringle-1 of human prothrombin (amino …); assay: SPR, POmAb immobilised on CM5, 1:1 model, 25 C
[12] = biological target: T2, human prothrombin wild-type; assay: SPR, POmAb immobilised on CM5, 1:1 model, 25 C
[13] = biological target: T1, kringle-1 of human prothrombin (amino …); assay: SPR, POmAb immobilised, second set, HEPES buffer, 25 C
[14] = biological target: T2, human prothrombin wild-type; assay: as above
[15] = biological target: T3, prothrombin variant S91A/Y93A; assay: as above
[16] = biological target: T2, human prothrombin wild-type; assay: SPR, calculated from Kd; prothrombin with 200 µM argatroban
[17] = biological target: T2, human prothrombin wild-type; assay: SPR, second set, calculated from Kd; prothrombin with argatroban
[18] = biological target: T2, human prothrombin wild-type; assay: SPR, POmAb immobilised; prothrombin with 200 µM argatroban (open form)
[19] = biological target: T3, prothrombin variant S91A/Y93A; assay: SPR, calculated from Kd; SPR, first set, Tris pH 7.4; ΔG calculated from Kd
[20] = biological target: T2, human prothrombin wild-type; assay: SPR, POmAb immobilised, second set; prothrombin with argatroban (open form)
[21] = biological target: T4, kringle-2 of human prothrombin (amino …); assay: ELISA, antigen coated on the plate, POmAb detected with anti-mouse IgG (gamma)-HRP and TMB, OD at 450 nm [panel C]
[22] = biological target: plasminogen (UniProt P00747 20-810, limits assumed); assay: as above
[23] = biological target: tissue plasminogen activator (UniProt P00750 36-562); assay: as above
[24] = biological target: T5, factor XII (UniProt P00748 20-615); assay: as above
T5 construct: also called FXII
T5 sequence (looked up): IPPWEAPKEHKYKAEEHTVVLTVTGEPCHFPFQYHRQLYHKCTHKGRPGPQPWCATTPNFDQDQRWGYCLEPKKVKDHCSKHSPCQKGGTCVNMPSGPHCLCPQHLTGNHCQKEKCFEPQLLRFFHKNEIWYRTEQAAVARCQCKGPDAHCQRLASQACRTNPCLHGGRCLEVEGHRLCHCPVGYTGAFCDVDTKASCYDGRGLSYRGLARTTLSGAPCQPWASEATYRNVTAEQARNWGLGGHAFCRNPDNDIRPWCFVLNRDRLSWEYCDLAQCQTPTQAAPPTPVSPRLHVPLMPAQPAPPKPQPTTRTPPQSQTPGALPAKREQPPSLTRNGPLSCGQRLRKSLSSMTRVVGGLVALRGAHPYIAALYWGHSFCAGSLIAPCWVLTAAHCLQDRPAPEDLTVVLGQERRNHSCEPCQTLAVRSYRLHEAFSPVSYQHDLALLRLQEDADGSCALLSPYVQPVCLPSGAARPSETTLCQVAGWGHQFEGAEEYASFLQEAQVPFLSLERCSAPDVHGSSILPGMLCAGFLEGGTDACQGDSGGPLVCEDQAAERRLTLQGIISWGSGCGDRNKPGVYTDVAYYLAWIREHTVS

[25] = biological target: T6, β2-glycoprotein I (UniProt P02749 20-345); assay: as above
T6 construct: also called B2-glycoprotein I; β2GPI
T6 sequence (looked up): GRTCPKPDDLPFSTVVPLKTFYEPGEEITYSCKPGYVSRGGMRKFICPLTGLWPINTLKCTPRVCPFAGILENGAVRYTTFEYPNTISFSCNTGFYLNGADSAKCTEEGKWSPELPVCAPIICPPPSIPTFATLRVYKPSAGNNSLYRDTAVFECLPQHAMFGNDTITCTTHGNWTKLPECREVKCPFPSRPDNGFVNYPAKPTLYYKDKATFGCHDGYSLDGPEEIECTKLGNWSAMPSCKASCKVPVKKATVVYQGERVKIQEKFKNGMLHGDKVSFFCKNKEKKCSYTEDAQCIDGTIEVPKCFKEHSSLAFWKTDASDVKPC

[26] = biological target: T3, prothrombin variant S91A/Y93A; assay: SPR, POmAb immobilised on CM5, 1:1 model, 25 C; SPR, first set, 20 mM Tris pH 7.4, 25 C: weak binding with fast dissociation
[27] = biological target: T3, prothrombin variant S91A/Y93A; assay: SPR, POmAb immobilised, second set, HEPES buffer, 25 C; SPR, second set, 20 mM HEPES pH 7.4, 25 C: weak binding with fast dissociation

tissue plasminogen activator, sequence (P00750 36-562): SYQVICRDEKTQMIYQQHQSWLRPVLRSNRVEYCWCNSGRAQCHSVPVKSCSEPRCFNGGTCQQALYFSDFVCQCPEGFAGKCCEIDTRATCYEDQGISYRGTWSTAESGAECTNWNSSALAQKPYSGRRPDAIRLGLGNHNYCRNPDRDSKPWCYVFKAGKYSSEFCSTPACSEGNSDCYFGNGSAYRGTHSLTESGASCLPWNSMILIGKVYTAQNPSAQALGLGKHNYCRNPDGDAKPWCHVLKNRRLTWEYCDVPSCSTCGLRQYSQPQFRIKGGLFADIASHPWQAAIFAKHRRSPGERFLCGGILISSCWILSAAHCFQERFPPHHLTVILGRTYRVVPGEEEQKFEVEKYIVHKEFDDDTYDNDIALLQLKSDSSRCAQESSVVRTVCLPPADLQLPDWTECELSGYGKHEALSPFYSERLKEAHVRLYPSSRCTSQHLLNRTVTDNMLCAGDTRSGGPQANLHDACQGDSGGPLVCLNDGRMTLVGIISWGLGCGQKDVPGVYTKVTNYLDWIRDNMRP
plasminogen, sequence (P00747 20-810 limits assumed): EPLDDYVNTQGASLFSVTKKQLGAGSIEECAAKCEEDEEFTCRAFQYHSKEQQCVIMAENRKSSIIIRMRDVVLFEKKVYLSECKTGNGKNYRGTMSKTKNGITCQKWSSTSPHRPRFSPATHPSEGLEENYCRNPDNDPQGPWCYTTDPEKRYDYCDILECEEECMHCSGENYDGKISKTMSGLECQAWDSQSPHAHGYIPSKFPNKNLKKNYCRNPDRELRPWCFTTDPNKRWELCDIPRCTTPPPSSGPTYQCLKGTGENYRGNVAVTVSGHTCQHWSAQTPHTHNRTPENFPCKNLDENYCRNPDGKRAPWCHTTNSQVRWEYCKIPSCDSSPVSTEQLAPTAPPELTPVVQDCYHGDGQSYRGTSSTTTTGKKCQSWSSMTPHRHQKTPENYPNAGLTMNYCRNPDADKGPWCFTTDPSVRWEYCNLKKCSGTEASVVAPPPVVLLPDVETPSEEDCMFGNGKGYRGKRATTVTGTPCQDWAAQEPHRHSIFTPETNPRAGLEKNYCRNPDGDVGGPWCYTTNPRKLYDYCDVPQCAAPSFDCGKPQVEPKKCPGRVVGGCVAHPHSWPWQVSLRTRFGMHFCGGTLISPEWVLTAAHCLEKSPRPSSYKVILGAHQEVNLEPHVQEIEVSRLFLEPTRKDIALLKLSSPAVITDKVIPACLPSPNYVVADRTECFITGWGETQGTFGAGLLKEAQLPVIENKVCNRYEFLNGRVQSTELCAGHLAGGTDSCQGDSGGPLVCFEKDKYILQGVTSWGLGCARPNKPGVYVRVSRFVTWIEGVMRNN

- EC50 [1]: 0.038 µg/mL
- EC50 [2]: 0.031 µg/mL
- EC50 [3]: 0.038 µg/mL
- binding result [4]: no binding
B1: 5B10 monoclonal antibody (antibody, V domains shown)
VH: QIQLVQSGPELKKPGETVKISCKASGYTFTNYGMNWVKQAPGKGLKWMGWINTYTGEPTYADDFKGRFAFSLETSASTAYLQINNLKNEDMATYFCARGGYYYGNNYEAYWGQGTLVTVSA
VL: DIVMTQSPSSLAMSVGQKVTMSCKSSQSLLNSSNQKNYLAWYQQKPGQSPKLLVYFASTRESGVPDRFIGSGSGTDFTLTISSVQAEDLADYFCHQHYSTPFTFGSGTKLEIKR
notes: also called clone 5B10

- fold change of dissociation rate against wild-type prothrombin [5]: ~1000 fold
- ΔG [6]: -11.5 kcal/mol
- ΔG [7]: -11.7 kcal/mol
- ΔG [8]: -11.3 kcal/mol
- ΔG [9]: -10.5 kcal/mol
- ΔG [10]: -8.2 kcal/mol
- EC50 [1]: 0.02 µg/mL
- EC50 [2]: 0.013 µg/mL
- EC50 [3]: 0.301 µg/mL
- Kd [11]: 3.7 nM
- koff [11]: 0.00027 s⁻¹
- kon [11]: 69100 M⁻¹ s⁻¹
- Kd [12]: 2.5 nM
- koff [12]: 0.00013 s⁻¹
- kon [12]: 52000 M⁻¹ s⁻¹
- Kd [13]: 5.33 nM
- koff [13]: 0.000314 s⁻¹
- kon [13]: 58900 M⁻¹ s⁻¹
- Kd [14]: 19.2 nM
- koff [14]: 0.000122 s⁻¹
- kon [14]: 6350 M⁻¹ s⁻¹
- Kd [15]: 1010 nM
- ΔG [16]: -11.6 kcal/mol
- ΔG [17]: -11.7 kcal/mol
- Kd [18]: 2.98 nM
- koff [18]: 0.00012 s⁻¹
- kon [18]: 40300 M⁻¹ s⁻¹
- ΔG [19]: -6.7 kcal/mol
- Kd [20]: 2.59 nM
- koff [20]: 9.49e-05 s⁻¹
- kon [20]: 36600 M⁻¹ s⁻¹
- binding result [21]: no binding
- binding result [22]: no binding (tested: 50 µg/ml)
- binding result [23]: no binding (tested: 50 µg/ml)
- binding result [24]: no binding (tested: 50 µg/ml)
- binding result [25]: no binding (tested: 50 µg/ml)
- Kd [26]: 12000 nM
- koff [26]: 0.29 s⁻¹
- kon [26]: 24200 M⁻¹ s⁻¹
- koff [27]: 0.0702 s⁻¹
- kon [27]: 69600 M⁻¹ s⁻¹
B2: POmAb (Prothrombin Open monoclonal Antibody) (antibody, mouse IgG1, kappa, V domains shown)
VH: EVHLVESGGGLVKPGGSLKLSCAASGFTFSSYYMYWVRQTPEKRLEWVATISNGGIYTYYLDSVRGRFTISRDNAKNILYLQMSGLSSADSAIYYCTRDGERQGAMDYWGQGTSVTVSS
VL: QIVLTQSPAIMSVSLGERVTMTCIVSSSVSSTYLHWYQQKPGSSPKLWIYSSSNLASGVPTRFSGSGSGTSHSLTISSMEAEDAAAYYCQLYRRSPLTFGAGTKLELKR
notes: also called POmAb IgG; IgG POmAb
